Data reported in the supplement of paper PMC10899765.

What was measured:
Details in all cases: 20 nM; 72 h
MCF10A [1] = assay: percent viability (nuclei count relative to siNT); higher = more viable cells
Method: (§1)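 After 72 h, cells were fixed and stained with Hoechst and anti-fibrillarin, and nucleoli per nucleus were counted with CellProfiler. Values are plate-adjusted percent effect for the one-nucleolus and 5+ nucleoli phenotypes, normalised to siNT (0%) and to the positive controls siNOL11 or siKIF11 (100%), as the mean of biological triplicates. Percent viability is the nuclei count relative to siNT.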

MCF10A [2] = assay: 5+ nucleoli phenotype percent effect (relative to siNT 0% and siKIF11 100%); higher = more cells with five or more nucleoli
Method: as §1

MCF10A [3] = assay: one-nucleolus phenotype percent effect (relative to siNT 0% and siNOL11 100%); higher = more cells with one nucleolus (ribosome biogenesis inhibition)
Method: as §1

| Sequence | percent viability (MCF10A [1]) [%] | 5+ nucleoli phenotype percent effect (MCF10A [2]) [%] | one-nucleolus phenotype percent effect (MCF10A [3]) [%] |
| --- | --- | --- | --- |
| UGCCUCCUUGGUCUCCGGCAG [hsa-miR-6791-3p] | 22.2 | -9.62 | -3.74 |
| UGCCUCUUUUCCACGGCCUCAG [hsa-miR-6781-3p] | 38.9 | 2.23 | -1.18 |
| UGCCUGGAACAUAGUAGGGACU [hsa-miR-3116] | 23.8 | -20.8 | 2.45 |
| UGCCUGGGUCUCUGGCCUGCGCGU [hsa-miR-661] | 23 | -18.5 | 23.1 |
| UGCCUUCCUGUCUGUG [hsa-miR-4297] | 20.9 | -10.3 | 16.6 |
| UGCGACAUUGGAAGUAGUAUCA [hsa-miR-3683] | 61.1 | -3.56 | -0.47 |
| UGCGCCUCGGGUGAGCAUG [hsa-miR-668-5p] | 43.2 | 37.3 | -14.2 |
| UGCGGCAGAGCUGGGGUCA [hsa-miR-6820-5p] | 16.9 | 3.87 | 11.9 |
| UGCGGCCGGUGCUCAACCUGC [hsa-miR-1199-3p] | 22.1 | -6.68 | 23.8 |
| UGCGGGGACAGGCCAGGGCAUC [hsa-miR-4749-5p] | 21.9 | -24.9 | 50.5 |
| UGCGGGGCUAGGGCUAACAGCA [hsa-miR-744-5p] | 12 | -35.1 | 53.9 |
| UGCGUUUCUCCUCUUGAGCAG [hsa-miR-6854-3p] | 23.5 | -12.2 | 21.3 |
| UGCUAGUCUGGACUGAUAUGGU [hsa-miR-8086] | 31.7 | -8.54 | -8.07 |
| UGCUAUGCCAACAUAUUGCCAU [hsa-miR-31-3p] | 34.2 | -33.1 | 27.9 |
| UGCUCAGGUUGCACAGCUGGGA [hsa-miR-3934-3p] | 52.8 | -20.7 | 9.77 |
| UGCUGAGGUCCGGGCUGUGCC [hsa-miR-7160-5p] | 16.8 | -22.1 | 47.5 |
| UGCUGAUGGCAGAUGUCGGGUCUG [hsa-miR-8075] | 20.8 | -34.6 | 44.2 |
| UGCUGCCUCUCCUCUUGCCUGCAG [hsa-miR-6882-3p] | 45.6 | 44.3 | -22.8 |
| UGCUGGAUCAGUGGUUCGAGUC [hsa-miR-1287] | 25.2 | -26.2 | 64.1 |
| UGCUGGCUCAUUUCAUAUGUGU [hsa-miR-5580-5p] | 29.6 | -18.4 | 22.1 |
| UGCUGGGGGCCACAUGAGUGUG [hsa-miR-4731-5p] | 20.7 | -2.14 | 40.3 |
| UGCUGUAUUGUCAGGUAGUGA [hsa-miR-4999-5p] | 48.1 | -10.3 | -7.82 |
| UGCUUAACCUUGCCCUCGAAA [hsa-miR-4804-3p] | 49.2 | -30.7 | 20.5 |
| UGCUUAAGUUGUACCAAGUAU [hsa-miR-4720-3p] | 53.4 | -20.7 | 7.73 |
| UGCUUCCUUUCAGAGGGU [hsa-miR-516a-3p] | 100 | -23 | -10.2 |
